T1: calreticulin (CRT) exposed on the cell membrane of drug-treated CT26 and MC38 cells (UniProt P14211 18-416, limits assumed)
T1 construct: whole, on cells; Target is inferred from cells on which calreticulin exposure was induced by anticancer drugs; cells were fixed with 3% paraformaldehyde; also called calreticulin on the cell surface
T1 sequence (looked up): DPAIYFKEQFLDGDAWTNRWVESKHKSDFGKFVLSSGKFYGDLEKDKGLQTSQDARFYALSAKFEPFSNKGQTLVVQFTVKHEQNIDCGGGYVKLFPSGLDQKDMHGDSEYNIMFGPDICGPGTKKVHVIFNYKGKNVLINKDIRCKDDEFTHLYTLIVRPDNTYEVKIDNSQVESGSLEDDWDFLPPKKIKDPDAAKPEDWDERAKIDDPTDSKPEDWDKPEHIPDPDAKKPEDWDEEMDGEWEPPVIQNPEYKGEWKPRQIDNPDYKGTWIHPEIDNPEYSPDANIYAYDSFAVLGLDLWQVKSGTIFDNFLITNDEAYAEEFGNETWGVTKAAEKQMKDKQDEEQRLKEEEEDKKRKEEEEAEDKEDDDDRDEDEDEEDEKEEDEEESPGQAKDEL

T2: calreticulin (CRT) exposed on the cell membrane of drug-treated Hela and MDA-MB-231 cells (UniProt P27797 18-417, limits assumed)
T2 construct: whole, on cells; Target is inferred from cells on which calreticulin exposure was induced by anticancer drugs; cells were fixed with 3% paraformaldehyde; also called calreticulin on the cell surface
T2 sequence (looked up): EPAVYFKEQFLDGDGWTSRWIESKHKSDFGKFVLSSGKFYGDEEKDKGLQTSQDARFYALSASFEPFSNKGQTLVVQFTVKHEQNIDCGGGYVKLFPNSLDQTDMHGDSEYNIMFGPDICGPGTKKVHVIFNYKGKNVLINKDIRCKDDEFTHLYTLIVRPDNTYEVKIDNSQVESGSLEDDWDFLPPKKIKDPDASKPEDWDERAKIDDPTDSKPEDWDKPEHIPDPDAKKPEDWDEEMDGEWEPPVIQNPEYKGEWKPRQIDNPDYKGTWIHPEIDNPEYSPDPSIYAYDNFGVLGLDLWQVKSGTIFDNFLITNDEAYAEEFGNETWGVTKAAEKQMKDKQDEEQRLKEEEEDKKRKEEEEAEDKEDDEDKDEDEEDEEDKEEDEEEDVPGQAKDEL

B1: CRT3 recombinant CRT-monobody (designed binder)
chain: MASVSDVPRDLEVVAATPTSLLISWKLGFFKRYYRITYGETGGNSPVQEFTVPGSKSTATISGLKPGVDYTITVYAVTGQPMYGQPMYPISINYRTGSHHHHHH
notes: His-tagged protein from E. coli, purified on Ni-NTA
B2: CRT6 recombinant CRT-monobody (designed binder)
chain: MASVSDVPRDLEVVAATPTSLLISWKLGFFKRYYRITYGETGGNSPVQEFTVPGSKSTATISGLKPGVDYTITVYAVTGRGDSPASSKPISINYRTGSHHHHHH
notes: His-tagged protein from E. coli, purified on Ni-NTA; BC loop: Int alpha; DE and FG loops marked '-'
B3: CRT4-R (recombinant CRT-monobody-Rluc8 of CRT4) (designed binder, not shown: large carriers; small tags and cut ends)
chain: MASVSDVPRDLEVVAATPTSLLISWGQPMYGQPMYYYRITYGETGGNSPVQEFTVPGSKSTATISGLKPGVDYTITVYAVTKLGFFKRPISINYRT
notes: detected with anti-His tag antibody
B4: CRT4 recombinant CRT-monobody (designed binder)
chain: MASVSDVPRDLEVVAATPTSLLISWGQPMYGQPMYYYRITYGETGGNSPVQEFTVPGSKSTATISGLKPGVDYTITVYAVTKLGFFKRPISINYRTGSHHHHHH
notes: as for B1
B5: CRT1 recombinant CRT-monobody (designed binder)
chain: MASVSDVPRDLEVVAATPTSLLISWDAPAVTVRYYRITYGETGGNSPVQEFTVPGSKSTATISGLKPGVDYTITVYAVTGQPMYGQPMYPISINYRTGSHHHHHH
notes: His-tagged protein expressed in E. coli BL21(DE3) from pETh plasmid, purified on Ni-NTA; FG loop: Hep 1; BC and DE loops unchanged
B6: CRT5 recombinant CRT-monobody (designed binder)
chain: MASVSDVPRDLEVVAATPTSLLISWGQPMYGQPMYYYRITYGETGGNSPVQEFTVPGSKSTATISGLKPGVDYTITVYAVTGRGDSPASSKPISINYRTGSHHHHHH
notes: His-tagged protein from E. coli, purified on Ni-NTA; BC loop: Hep 1; DE and FG loops marked '-'
B7: CRT3-R (recombinant CRT-monobody-Rluc8 of CRT3) (designed binder, not shown: large carriers; small tags and cut ends)
chain: MASVSDVPRDLEVVAATPTSLLISWKLGFFKRYYRITYGETGGNSPVQEFTVPGSKSTATISGLKPGVDYTITVYAVTGQPMYGQPMYPISINYRT
notes: as for B3
B8: CRT2 recombinant CRT-monobody (designed binder)
chain: MASVSDVPRDLEVVAATPTSLLISWDAPAVTVRYYRITYGETGGNSPVQEFTVPGSKSTATISGLKPGVDYTITVYAVTKLGFFKRPISINYRTGSHHHHHH
notes: His-tagged protein from E. coli, purified on Ni-NTA; FG loop: Int alpha; BC and DE loops unchanged

Assays:
[1] = target: T1, calreticulin (CRT) exposed on the cell …; test: confocal microscopy, mitoxantrone-treated CT26 cells, 10 µg/mL monobody, anti-His tag detection
Description: In order to verify the binding force of the purified CRT-monobody to calreticulin, the present inventors observed the degree of binding with a confocal microscope after treating the cancer cells with CRT-monobody. Specifically, CT26 (colon cancer) cells, which are cancer cells, were seeded at 1×10⁵ cells per well in chamber slides (154534PAK, Thermo Fisher Scientific) and cultured overnight in a C02 incubator. Then, each of the cells was treated with mitoxantrone (25 μM), which is an anticancer drug, to induce calreticulin on the surface thereof, treated with gemcitabine (15 μM) as a control group, and cultured for 4 hours, washed with PBS, and reacted with 3% paraformaldehyde for 10 minutes to fix the cells. Then, a block buffer (3% BSA in PBS) was treated for 1 hour to prevent the hard-to-bind antibody, and the CRT-monobody (10 μg/mL) of the present invention was treated in each well and reacted for 1 hour to induce binding to calreticulin. […] In addition, Alexa 555 conjugated WGA-555 (1:2000, 3% BSA in PBS) was treated in order to distinguish cell membranes, DAPI-Glod-antifade was treated, and mounting was performed, and the prepared slides were refrigerated under dark conditions.

[2] = target: T1, calreticulin (CRT) exposed on the cell …; test: flow cytometry, mitoxantrone- or doxorubicin-treated CT26 and MC38 cells, 5 µg/mL, anti-His tag detection
Excerpt: (§1) The present inventors allowed cancer cells to react with CRT-monobody-Rluc8, and then measured the binding degree in the number of cells in order to more accurately confirm the binding force of CRT-monobody-Rluc8, which was purified according to an embodiment of the present invention, to calreticulin. To this end, CT26, MC38, Hela, and MDA-MB-231 cells were first cultured, and then the expression of calreticulin on the cell surface was induced by the same method (gemcitabine, doxorubicin, and mitoxantrone) as in Example 5. […] Finally, in order to identify cells bound to CRT-monobody, fluorescence signals of the cells were identified using a flow cytometer (BD Bioscience).
(§2) As a result, when the CT26 (colon cancer), MC38 (colon cancer), Hela (uterine cancer), and MDA-MB-231 (breast cancer) cells were not treated with an anticancer drug and when the cells were treated with gemcitabine, no exposure of calreticulin on the cell membrane was confirmed through fluorescence signals for each cell, and there was no signal change after CRT-monobody treatment of the present invention, so that it was confirmed that the CRT-monobody was not bound to the cells.

[3] = target: T2, calreticulin (CRT) exposed on the cell …; test: confocal microscopy, mitoxantrone- or doxorubicin-treated Hela and MDA-MB-231 cells, 10 µg/mL, anti-His tag detection
Description: In order to verify the binding force of the CRT-monobody-Rluc8 protein to calreticulin, the present inventors observed the degree of binding with a confocal microscope after purifying CRT3-R, CRT4-R, and DGR-R as in Example 3 and treating cancer cells with the CRT-monobody-Rluc8 proteins. Specifically, cancer cells such as CT26 (colon cancer), MC38 (colon cancer), Hela (uterine cancer), and MDA-MB-231 (breast cancer) were seeded at 1×10⁵ cells per well in chamber slides (154534PAK, Thermo Fisher Scientific) and cultured overnight in a CO₂ incubator. Then, each of the cells was treated with doxorubicin (25 μM) and mitoxantrone (25 μM), which are anticancer drugs, to induce calreticulin on the surface thereof, treated with gemcitabine (15 μM) as a control group, and cultured for 4 hours, washed with PBS, and reacted with 3% paraformaldehyde for 10 minutes to fix the cells. Then, a block buffer (3% BSA in PBS) was treated for 1 hour to prevent the hard-to-bind antibody, and the CRT-monobody (10 μg/mL) was treated in each well and reacted for 1 hour to induce binding to calreticulin. […] In addition, Alexa 555 conjugated WGA-555 (1:2000, 3% BSA in PBS) was treated in order to distinguish cell membranes, DAPI-Glod-antifade was treated, and mounting was performed, and the prepared slides were refrigerated under dark conditions.

[4] = target: T2, calreticulin (CRT) exposed on the cell …; test: flow cytometry, mitoxantrone- or doxorubicin-treated Hela and MDA-MB-231 cells, 5 µg/mL, anti-His tag detection
Excerpt: as §1, §2

| Binder | binding result [1] | other results |
| --- | --- | --- |
| B1 | binds |  |
| B2 | binds |  |
| B3 |  | binding result [2]: binds; binding result [3]: binds |
| B4 | binds |  |
| B5 | binds |  |
| B6 | binds |  |
| B7 |  | binding result [2]: binds; binding result [4]: binds |
| B8 | binds |  |
